Laboratory results reported in US20230383007A1 (BIOSION, published 2023).

B1: single domain antibody 01-9F (VHH)
VHH: QVQLVESGGGSVQAGGSLRLSCVVSGLPYERYCVAWFRQGPGKEREGVARILSDGTTSYSDSVKGRFTISKDNAKNTLYLQMNSLKSEDTATYYCAAEAFRPFTPSDGDCTTVLGIDYWGKGTPVTVSS
B2: sacituzumab (benchmark, an analog of sacituzumab, in house made) (antibody, human IgG1, kappa, V domains shown)
VH: SVQLQQSGSELKKPGASVKVSCKASGYTFTNYGMNWVKQAPGQGLKWMGWINTYTGEPTYTDDFKGRFAFSLDTSVSTAYLQISSLKADDTAVYFCARGGFGSSYWYFDVWGQGSLVTVSS
VL: DIQLTQSPSSLSASVGDRVSITCKASQDVSIAVAWYQQKPGKAPKLLIYSASYRYTGVPDRFSGSGSGTDFTLTISSLQPEDFAVYYCQQHYITPLTFGAGTKVEIKR
notes: also called BM; BM1

How the values were obtained:
[1] = biological target: T1, human TROP2-his protein (human, UniProt P09758 27-274); assay: SPR Biacore T200; antibody captured on anti-human IgG CM5 chip, TROP2-his as analyte in 2-fold dilutions from 160 nM; 1:1 Langmuir fit
T1 construct: also called biotin labeled human TROP2-his protein
T1 sequence: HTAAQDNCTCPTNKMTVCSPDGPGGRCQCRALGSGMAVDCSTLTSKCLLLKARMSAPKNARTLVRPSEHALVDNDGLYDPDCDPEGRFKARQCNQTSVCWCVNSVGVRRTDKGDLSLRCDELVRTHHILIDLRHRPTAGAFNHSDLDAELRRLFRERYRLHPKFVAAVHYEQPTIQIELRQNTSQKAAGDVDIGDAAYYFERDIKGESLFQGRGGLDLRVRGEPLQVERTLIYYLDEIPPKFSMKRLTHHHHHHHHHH
Source text: (§1) The purified anti-TROP2 mouse monoclonal antibodies (mAbs) were characterized for binding affinity and binding kinetics by Biacore T200 system (GE healthcare, Pittsburgh, PA, USA). Briefly, goat anti-human IgG (GE healthcare, Cat #BR100839, Human Antibody Capture Kit) was covalently linked to a CM5 chip (carboxy methyl dextran coated chip from GE healthcare #BR100530) via primary amines, using a standard amine coupling kit (GE healthcare, Pittsburgh, PA, USA) provided by Biacore. Un-reacted moieties on the chip (biosensor) surface were blocked with ethanolamine. The anti-TROP2 antibodies of the disclosure and the benchmark at the concentration of 2 μg/ml were respectively flowed onto the chip at a flow rate of 10 μL/min. Then, serially diluted human TROP2-his protein (prepared in-house with SEQ ID NO: 16), or cynomolgus TROP2-his protein (prepared in-house with SEQ ID NO: 19), 2-fold dilution in HBS-EP⁺ buffer (provided by Biacore) starting at 160 nM, were flowed onto the chip at a flow rate of 30 μL/min. The antigen-antibody association kinetics was followed for 2 minutes and the dissociation kinetics was followed for 10 minutes. The association and dissociation curves were fit to a 1:1 Langmuir binding model using BIAcore evaluation software.

[2] = biological target: T2, cynomolgus TROP2-his protein (cynomolgus, UniProt P09758 27-272 (human entry), limits assumed); assay: as above
T2 construct: also called Cyno TROP2-his; Cynomolgus monkey TROP2-his protein
T2 chain: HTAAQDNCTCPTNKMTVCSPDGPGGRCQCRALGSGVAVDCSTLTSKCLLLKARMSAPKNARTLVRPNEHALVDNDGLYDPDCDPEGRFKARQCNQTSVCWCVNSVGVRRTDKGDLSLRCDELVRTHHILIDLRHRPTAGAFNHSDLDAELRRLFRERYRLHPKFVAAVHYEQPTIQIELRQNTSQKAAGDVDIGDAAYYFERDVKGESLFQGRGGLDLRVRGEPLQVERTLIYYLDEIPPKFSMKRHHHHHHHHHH
Source text: as §1

[3] = biological target: T1, human TROP2-his protein; assay: competitive ELISA: antibody pre-mixed with biotin labeled human TROP2-his, added to plate coated with the benchmark (sacituzumab analog); unit taken from the x axis (ng/mL)
Method: The anti-TROP2 antibodies were tested for their epitope binding in a competitive ELISA assay. Briefly, 100 μl of the benchmark at 1 μg/mL in PBS was coated on 96-well micro plates for 2 hours at 37° C. ELISA plates were washed once with wash buffer (PBS+0.05% v/v Tween-20, PBST) and then blocked with 200 μl blocking buffer (5% w/v non-fatty milk in PBST) for 2 hours at 37° C. While blocking, the anti-TROP2 antibodies of the disclosure or controls were diluted with biotin labeled human TROP2-his protein (SEQ ID NO: 16, 34 ng/mL in 2.5% w/v non-fatty milk in PBST), starting at 80 nM with a 5-fold serial dilution, and incubated at room temperature for 40 minutes. After plate washing 4 times, the antibody/TROP2-his protein mixtures were added to benchmark coated plates, 100 μl per well. After incubation at 37° C. for 40 minutes, plates were washed 4 times again using wash buffer. Then the plates were added and incubated with 100 μl Peroxidase Streptavidin (1:10000 dilution in PBST buffer, Jackson Immunoresearch, Cat #016-030-084) for 40 minutes at 37° C. Plates were washed again using wash buffer. […] The absorbance of each well was read on a microplate reader using dual wavelength mode with 450 nm for TMB and 630 nm as the reference wavelength, and the OD (450-630) values were plotted against antibody concentration. Data was analyzed using Graphpad Prism software and IC₅₀ values were reported.

[4] = biological target: T1, human TROP2-his protein; assay: SPR Biacore; antibody captured on anti-human IgG chip, TROP2-his as analyte
[5] = biological target: T2, cynomolgus TROP2-his protein; assay: as above
[6] = biological target: T1, human TROP2-his protein; assay: competitive ELISA: soluble benchmark pre-mixed with biotin labeled human TROP2-his, added to plate coated with the benchmark (self-competition); unit taken from the x axis (nM)

Binder | Kd [1] [nM] | koff [1] [s⁻¹] | kon [1] [M⁻¹ s⁻¹] | Kd [2] [nM] | koff [2] [s⁻¹] | kon [2] [M⁻¹ s⁻¹] | IC50 [3] [µg/mL] | Kd [4] [nM] | koff [4] [s⁻¹] | kon [4] [M⁻¹ s⁻¹] | Kd [5] [nM] | koff [5] [s⁻¹] | kon [5] [M⁻¹ s⁻¹] | IC50 [6] [nM]
B1 | 0.0262 | 8.11e-06 | 309000 | 0.558 | 0.000161 | 287000 | 0.0274 | 0.291 | 0.00017 | 586000 | 0.285 | 0.00015 | 525000 | 
B2 | 0.409 | 0.000116 | 284000 | 0.874 | 0.000224 | 257000 |  | 0.554 | 0.000286 | 516000 | 0.436 | 0.000228 | 522000 | 0.563
